{
  "source": "patent US20040018205A1",
  "key": {"[1]": {"target": "soluble HLA-A2.01 molecules", "assay": "competition with 125I-F10V for HLA-A2.01, ratio peptide/125I-F10V 10/1"}, "[2]": {"target": "soluble HLA-A2.01 molecules", "assay": "competition with 125I-F10V for HLA-A2.01, ratio peptide/125I-F10V 25/1"}, "[3]": {"target": "HLA-A2.01 molecule at the surface of T2 cells", "assay": "T2 cells loaded overnight; residual surface complexes by indirect immunofluorescence and FACS at 0, 2, 4 and 5 h"}, "[4]": {"target": "HLA-A2.01 molecule at the surface of T2 cells", "assay": "T2 cell HLA-A2.01 stabilization; concentration ratio against the reference peptide for 20% of maximal stabilized molecules"}, "[5]": {"target": "HLA-A2.01 molecule at the surface of T2 cells"}},
  "note": "Like-named read-outs stand apart in the source and are kept apart here. Non-standard residues stand in square brackets, D forms with d. No end group written: not given here. Abu = CC[C@H](N)C(=O)O",
  "data": [
    {"binder": "RIAECILGM (modifications not checked)", "note": "[wildtype R9M peptide]", "values": [
      {"measurement": "percentage inhibition of the binding of 125I-F10V, ratio 10/1", "setting": "[1]", "result": 64, "unit": "%"},
      {"measurement": "percentage inhibition of the binding of 125I-F10V, ratio 25/1", "setting": "[2]", "result": 69, "unit": "%"},
      {"measurement": "DC50 (half-life of the peptide-HLA-A2.1 complex)", "setting": "[3]", "result": "< 2", "unit": "h"},
      {"measurement": "RA", "setting": "[4]", "result": 2.9}
    ]},
    {"binder": "YIAE[Abu]ILGM", "note": "[Y9M-5α-but]", "values": [
      {"measurement": "percentage inhibition of the binding of 125I-F10V, ratio 10/1", "setting": "[1]", "result": 26, "unit": "%"},
      {"measurement": "percentage inhibition of the binding of 125I-F10V, ratio 25/1", "setting": "[2]", "result": 26, "unit": "%"},
      {"measurement": "RA", "setting": "[4]", "result": 0.7}
    ]},
    {"binder": "YIAESILGM (modifications not checked)", "note": "[Y9M-5S]", "values": [
      {"measurement": "percentage inhibition of the binding of 125I-F10V, ratio 10/1", "setting": "[1]", "result": 25, "unit": "%"},
      {"measurement": "percentage inhibition of the binding of 125I-F10V, ratio 25/1", "setting": "[2]", "result": 37, "unit": "%"},
      {"measurement": "RA", "setting": "[4]", "result": 1.4}
    ]},
    {"binder": "AMPIGRIAE (modifications not checked)", "note": "[A9E]", "values": [
      {"measurement": "percentage inhibition of the binding of 125I-F10V, ratio 10/1", "setting": "[1]", "result": 47, "unit": "%"},
      {"measurement": "percentage inhibition of the binding of 125I-F10V, ratio 25/1", "setting": "[2]", "result": 57, "unit": "%"}
    ]},
    {"binder": "YIAECILGM (modifications not checked)", "note": "[Y9M]", "values": [
      {"measurement": "DC50 (half-life of the peptide-HLA-A2.1 complex)", "setting": "[3]", "result": "< 2", "unit": "h"}
    ]},
    {"binder": "RIAE[Abu]ILGM", "note": "[R9M-5α-but]", "values": [
      {"measurement": "percentage inhibition of the binding of 125I-F10V, ratio 10/1", "setting": "[1]", "result": 27, "unit": "%"},
      {"measurement": "percentage inhibition of the binding of 125I-F10V, ratio 25/1", "setting": "[2]", "result": 49, "unit": "%"},
      {"measurement": "DC50 (half-life of the peptide-HLA-A2.1 complex)", "setting": "[3]", "result": 2, "unit": "h"},
      {"measurement": "RA", "setting": "[4]", "result": 2}
    ]},
    {"binder": "PIGRIAECI (modifications not checked)", "note": "[P9I]", "values": [
      {"measurement": "DC50 (half-life of the peptide-HLA-A2.1 complex)", "setting": "[3]", "result": 0, "unit": "h"}
    ]},
    {"binder": "RIAESILGM (modifications not checked)", "note": "[R9M-5S]", "values": [
      {"measurement": "DC50 (half-life of the peptide-HLA-A2.1 complex)", "setting": "[5]", "result": 2, "unit": "h"},
      {"measurement": "RA", "setting": "[5]", "result": 2.2},
      {"measurement": "percentage inhibition of the binding of 125I-F10V, ratio 10/1", "setting": "[1]", "result": 74, "unit": "%"},
      {"measurement": "percentage inhibition of the binding of 125I-F10V, ratio 25/1", "setting": "[2]", "result": 75, "unit": "%"}
    ]},
    {"binder": "YIGRIAECI (modifications not checked)", "note": "[Y9I]", "values": [
      {"measurement": "DC50 (half-life of the peptide-HLA-A2.1 complex)", "setting": "[3]", "result": "< 2", "unit": "h"}
    ]},
    {"binder": "YIAEAILGM (modifications not checked)", "note": "[Y9M-5A]", "values": [
      {"measurement": "percentage inhibition of the binding of 125I-F10V, ratio 10/1", "setting": "[1]", "result": 79, "unit": "%"},
      {"measurement": "percentage inhibition of the binding of 125I-F10V, ratio 25/1", "setting": "[2]", "result": 87, "unit": "%"},
      {"measurement": "RA", "setting": "[4]", "result": 0.9}
    ]},
    {"binder": "RIAEAILGM (modifications not checked)", "note": "[R9M-5A]", "values": [
      {"measurement": "percentage inhibition of the binding of 125I-F10V, ratio 10/1", "setting": "[1]", "result": 59, "unit": "%"},
      {"measurement": "percentage inhibition of the binding of 125I-F10V, ratio 25/1", "setting": "[2]", "result": 72, "unit": "%"},
      {"measurement": "DC50 (half-life of the peptide-HLA-A2.1 complex)", "setting": "[3]", "result": "< 2", "unit": "h"},
      {"measurement": "RA", "setting": "[4]", "result": 3.2}
    ]},
    {"binder": "YMPIGRIAE (modifications not checked)", "note": "[Y9E]", "values": [
      {"measurement": "DC50 (half-life of the peptide-HLA-A2.1 complex)", "setting": "[3]", "result": 0, "unit": "h"}
    ]}
  ]
}
